{"source": "paper PMC6385242", "about": "“Identification and characterization of a factor Va-binding site on human prothrombin fragment 2” (Scientific Reports, 2019)", "binders": {"B1": {"name": "Factor Va (complex)", "heavy": "AQLRQFYVAAQGISWSYRPEPTNSSLNLSVTSFKKIVYREYEPYFKKEKPQSTISGLLGPTLYAEVGDIIKVHFKNKADKPLSIHPQGIRYSKLSEGASYLDHTFPAEKMDDAVAPGREYTYEWSISEDSGPTHDDPPCLTHIYYSHENLIEDFNSGLIGPLLICKKGTLTEGGTQKTFDKQIVLLFAVFDESKSWSQSSSLMYTVNGYVNGTMPDITVCAHDHISWHLLGMSSGPELFSIHFNGQVLEQNHHKVSAITLVSATSTTANMTVGPEGKWIISSLTPKHLQAGMQAYIDIKNCPKKTRNLKKITREQRRHMKRWEYFIAAEEVIWDYAPVIPANMDKKYRSQHLDNFSNQIGKHYKKVMYTQYEDESFTKHTVNPNMKEDGILGPIIRAQVRDTLKIVFKNMASRPYSIYPHGVTFSPYEDEVNSSFTSGRNNTMIRAVQPGETYTYKWNILEFDEPTENDAQCLTRPYYSDVDIMRDIASGLIGLLLICKSRSLDRRGIQRAADIEQQAVFAVFDENKSWYLEDNINKFCENPDEVKRDDPKFYESNIMSTINGYVPESITTLGFCFDDTVQWHFCSVGTQNEILTIHFTGHSFIYGKRHEDTLTLFPMRGESVTVTMDNVGTWMLTSMNSSPRSKKLRLKFRDVKCIPDDDEDSYEIFEPPESTVMATRKMHDRLEPEDEESDADYDYQNRLAAALGIR", "light": "SNNGNRRNYYIAAEEISWDYSEFVQRETDIEDSDDIPEDTTYKKVVFRKYLDSTFTKRDPRGEYEEHLGILGPIIRAEVDDVIQVRFKNLASRPYSLHAHGLSYEKSSEGKTYEDDSPEWFKEDNAVQPNSSYTYVWHATERSGPESPGSACRAWAYYSAVNPEKDIHSGLIGPLLICQKGILHKDSNMPMDMREFVLLFMTFDEKKSWYYEKKSRSSWRLTSSEMKKSHEFHAINGMIYSLPGLKMYEQEWVRLHLLNIGGSQDIHVVHFHGQTLLENGNKQHQLGVWPLLPGSFKTLEMKASKPGWWLLNTEVGENQRAGMQTPFLIMDRDCRMPMGLSTGIISDSQIKASEFLGYWEPRLARLNNGGSYNAWSVEKLAAEFASKPWIQVDMQKEVIITGIQTQGAKHYLKSCYTTEFYVAYSSNQINWQIFKGNSTRNVMYFNGNSDASTIKENQFDPPIVARYIRISPTRAYNRPTLRLELQGCEVNGCSTPLGMENGKIENKQITASSFKKSWWGDYWEPFRARLNAQGRVNAWQAKANNNKQWLEIDLLKIKKITAIITQGCKSLSSEMYVKSYTIHYSEQGVEWKPYRLKSSMVDKIFEGNTNTKGHVKNFFNPPIISRFIRVIPKTWNQSIALRLELFGCDIY", "notes": "heavy chain of factor Va; light chain of factor Va; Bovine FVa is named only for the preparation of the heavy chain for NMR; the source of the FVa of the other experiments is in the Supplementary Materials; also called FVa"}}, "biological_target": "T1, Wild-type prothrombin (human, UniProt P00734 44-622)", "T1 construct": "prothrombin, human", "assay": "SPR; Biacore T200; FVa amine-coupled on a CM5 chip (8000-9000 RU); prothrombin 0-10,000 nM injected for 60 s at 30 uL/min; HBS (0.02 M HEPES, 0.15 M NaCl, pH 7.4) with 5 mM CaCl2 and 0.01% Tween-80; kinetic 1:1 Langmuir model", "details": "both partners purified"}
{"binder": "B1", "values": [{"measurement": "Kd", "value": 1000, "unit": "nM"}]}
